B1: Poly(rC)-binding protein 1, residues 278 to 350; numbered along this chain, Q15365 (parent)
chain: TQTTHELTIPNNLIGCIIGRQGANINEIRQMSGAQIKIANPVEGSSGRQVTITGSAASISLAQYLINARLSSE

± gives the uncertainty stated by the source.

This series covers variants of B1. Put plainly: abundance fitness (aPCA) (normalised: wild type 0, dead -1); higher = more abundant; growth selection in yeast, the domain comes from the species named. The conditions noted are these: Homo sapiens.
Consider L13I, for which the abundance fitness is -0.076 ± 0.12. The value for L13A was -0.069 ± 0.043; that for L13H was -0.051 ± 0.082. With L13P, the abundance fitness was -0.959 ± 0.2. With L13M the figure was 0.05 ± 0.06; with I25C, -1.01 ± 0.29; with I25F, -0.539 ± 0.13. With I25K the figure was -0.873 ± 0.18. The value for I25M was -0.169 ± 0.05. I25H: the abundance fitness turned out to be 0.296 ± 0.24. Turning to A62Q, the abundance fitness was -0.78 ± 0.29. For A62C, the abundance fitness was -0.768 ± 0.23. As for E27L, the abundance fitness was -0.225 ± 0.045. E27I: the abundance fitness is -0.164 ± 0.19. The value for E27D was -0.099 ± 0.076; that for E27F was -0.564 ± 0.17. Take E27Y: the abundance fitness was -0.157 ± 0.12. G33C: the abundance fitness is -0.652 ± 0.13. The value for G33R was -0.324 ± 0.045; that for G33Q was -0.204 ± 0.075.

As to G33H, the abundance fitness was -0.618 ± 0.24. With G33M the figure was -0.657 ± 0.11; with G33P, -1.04 ± 0.23. With G33W the figure was -0.414 ± 0.096. With G33E the figure was -0.541 ± 0.078; with G44N, -0.12 ± 0.088. Take G44Q: the abundance fitness was -0.308 ± 0.069. As for G44E, the abundance fitness is -0.278 ± 0.1. With G44F the figure was -0.182 ± 0.094; with S72H, -0.07 ± 0.2.

On to S72D, for which the abundance fitness is -0.107 ± 0.25.

As to S72T, the abundance fitness stood at 0.222 ± 0.087. The value for S72K was -0.072 ± 0.22; that for S72Q was -0.401 ± 0.26. The value for S72V was -0.072 ± 0.094; that for S72Y was -0.152 ± 0.28; that for S46G was -0.032 ± 0.057. With S46C the figure was -0.021 ± 0.081; with S46N, 0.069 ± 0.052.

For S46Q, the abundance fitness is -0.048 ± 0.048.

In the case of P41G, the abundance fitness is -0.11 ± 0.033. With P41S the figure was -0.061 ± 0.046. Take P41E: the abundance fitness is -0.012 ± 0.042. In the case of P41L, the abundance fitness was -0.046 ± 0.047. The value for P41Q was 0.049 ± 0.055; that for T8L was -0.032 ± 0.052; that for T8R was -0.028 ± 0.036. As for T8N, the abundance fitness turned out to be 0.081 ± 0.13. With T8D the figure was 0.144 ± 0.097; with S45N, -0.031 ± 0.067. Consider S45E, for which the abundance fitness worked out at 0.002 ± 0.1.

Regarding S45C, the abundance fitness is 0.012 ± 0.13.

S45I: the abundance fitness was -0.093 ± 0.076. With S45W, the abundance fitness is -0.431 ± 0.15.

For the variant S45D, the abundance fitness is 0.026 ± 0.15. With S45A, the abundance fitness was -0.002 ± 0.062. The value for S45G was -0.292 ± 0.12; that for S45V was -0.012 ± 0.087; that for S45T was 0.056 ± 0.046.

As to H5Y, the abundance fitness is -0.083 ± 0.11. The value for H5R was 0.091 ± 0.041.

Turning to H5M, the abundance fitness was determined as 0.136 ± 0.057. With H5S the figure was 0.091 ± 0.056. Take H5N: the abundance fitness was -0.173 ± 0.088.

H5F: the abundance fitness is -0.32 ± 0.2. With H5E the figure was -0.073 ± 0.061.

I14F: the abundance fitness was -0.378 ± 0.17. With I14N the figure was -0.762 ± 0.26. On to I14S, for which the abundance fitness was -0.367 ± 0.067. With I14A the figure was -0.228 ± 0.055; with I14P, -0.647 ± 0.14; with S32Q, -0.334 ± 0.14. The value for S32R was -0.85 ± 0.07; that for S32I was -0.882 ± 0.25.

Consider S32W, for which the abundance fitness is -1.14 ± 0.23. On to S32C, for which the abundance fitness was -0.201 ± 0.13. The value for T1V was 0.061 ± 0.058; that for T1N was 0.194 ± 0.12.

T1Q: the abundance fitness is -0.559 ± 0.24. As for Q30G, the abundance fitness is -0.168 ± 0.047.

Turning to Q30M, the abundance fitness is -0.137 ± 0.048. As to Q30D, the abundance fitness was -0.502 ± 0.41. Q30S: the abundance fitness came out at 0.023 ± 0.064. For Q30L, the abundance fitness was -0.163 ± 0.035.

Consider I28W, for which the abundance fitness was -0.408 ± 0.11. With I28R the figure was -0.825 ± 0.095; with I28A, -0.735 ± 0.087; with I28M, -0.281 ± 0.049.

As to V50F, the abundance fitness is -0.602 ± 0.19. With V50E the figure was -0.714 ± 0.12; with V50K, -0.7 ± 0.14; with V50Y, -0.57 ± 0.46. As for L70M, the abundance fitness is -0.228 ± 0.26.

On to E43H, for which the abundance fitness is -0.021 ± 0.054. With E43S the figure was -0.02 ± 0.045; with E43L, -0.039 ± 0.045; with E43F, -0.179 ± 0.067. With Q21I the figure was -0.844 ± 0.22; with Q21P, -0.568 ± 0.066. For Q21C, the abundance fitness was -0.281 ± 0.061.

Regarding Q21R, the abundance fitness is -0.012 ± 0.033.

In the case of Q21S, the abundance fitness is -0.09 ± 0.038. With Q49I the figure was -0.033 ± 0.063; with Q49L, 0.03 ± 0.041.

Take Q49H: the abundance fitness is -0.073 ± 0.069. Regarding Q49R, the abundance fitness worked out at 0.049 ± 0.029. The value for Q49D was -0.263 ± 0.069. With A68N, the abundance fitness amounted to 0.163 ± 0.14. With A39M the figure was -0.092 ± 0.05. In the case of A39L, the abundance fitness is -0.04 ± 0.038. The value for A39K was -0.05 ± 0.071. Consider Q63C, for which the abundance fitness is -0.078 ± 0.11.

Q63K: the abundance fitness came to 0.223 ± 0.069.

In the case of Q63D, the abundance fitness came out at 0.091 ± 0.12.

Regarding Q63Y, the abundance fitness is -0.469 ± 0.22.

As for Q63T, the abundance fitness turned out to be 0.006 ± 0.053. With I36P, the abundance fitness is -1.01 ± 0.24. With R20C the figure was -0.04 ± 0.068; with R20V, -0.031 ± 0.043.

Turning to R20N, the abundance fitness was 0.27 ± 0.09. For R20F, the abundance fitness amounted to 0.1 ± 0.1. With R20S the figure was -0.082 ± 0.043; with R20H, 0.139 ± 0.1; with R20L, -0.035 ± 0.04. Consider G22N, for which the abundance fitness came to 0.089 ± 0.12.

As for G22P, the abundance fitness is -0.583 ± 0.074.

For G22Y, the abundance fitness is -0.383 ± 0.18. In the case of G22L, the abundance fitness was -0.408 ± 0.048. In the case of G22Q, the abundance fitness is -0.228 ± 0.057. For I52V, the abundance fitness is -0.218 ± 0.037. Turning to I52M, the abundance fitness is -0.225 ± 0.053.

For I52W, the abundance fitness was -1.02 ± 0.16. On to I52L, for which the abundance fitness is -0.039 ± 0.037. In the case of I52F, the abundance fitness was -0.694 ± 0.26. For R48L, the abundance fitness was -0.328 ± 0.046.

In the case of I18N, the abundance fitness was -0.156 ± 0.13.

Regarding I18A, the abundance fitness was -0.316 ± 0.048. With I18R the figure was -0.636 ± 0.049; with I18V, -0.367 ± 0.046; with I18G, -0.565 ± 0.077.

I18D: the abundance fitness is -0.39 ± 0.091. Regarding T51K, the abundance fitness was 0.005 ± 0.052. With T51L the figure was -0.034 ± 0.037; with T51G, -0.574 ± 0.065; with T51D, -0.542 ± 0.22. With T51S the figure was -0.02 ± 0.042; with A23H, 0.102 ± 0.093; with A23P, -0.401 ± 0.1. The value for A23N was -0.167 ± 0.14.

For A23Y, the abundance fitness was -0.296 ± 0.13.

As to G19L, the abundance fitness is -0.815 ± 0.13.

G19T: the abundance fitness was -0.732 ± 0.15. With G19K the figure was -0.194 ± 0.13; with N24K, 0.076 ± 0.067; with N24P, -0.088 ± 0.048. Turning to N24R, the abundance fitness worked out at 0.066 ± 0.032. N24H: the abundance fitness is -0.049 ± 0.067. With N24M the figure was 0.038 ± 0.073; with N24L, -0.134 ± 0.042. With Q35E the figure was -0.058 ± 0.065. The value for Q35A was -0.11 ± 0.047; that for Q35D was 0.001 ± 0.083; that for Q35V was -0.119 ± 0.035.

Q2M: the abundance fitness is 0.075 ± 0.054.

For I9P, the abundance fitness was -0.835 ± 0.13. For I9T, the abundance fitness was -0.79 ± 0.13.

Take I9D: the abundance fitness was -0.714 ± 0.17.

The values above are taken from the Human Domainome abundance scans (Beltran et al. 2025).
